The source of these data is publication PMC7212649, “An arrestin-1 surface opposite of its interface with photoactivated rhodopsin engages with enolase-1” (The Journal of Biological Chemistry, 2020).

The labels stand for the following.
B1: arrestin-1 E218C (C63A/C143A), mBBr-labeled (natural protein, bovine)
chain: KANKPAPNHVIFKKISRDKSVTIYLGKRDYIDHVERVEPVDGVVLVDPELVKGKRVYVSLTAAFRYGQEDIDVMGLSFRRDLYFSQVQVFPPVGASGATTRLQESLIKKLGANTYPFLLTFPDYLPCSVMLQPAPQDVGKSAGVDFEIKAFATHSTDVEEDKIPKKSSVRLLIRKVQHAPRDMGPQPRAEASWQFFMSDKPLRLAVSLSKEIYYHGCPIPVTVAVTNSTEKTVKKIKVLVEQVTNVVLYSSDYYIKTVAAEEAQEKVPPNSSLTKTLTLVPLLANNRERRGIALDGKIKHEDTNLASSTIIKEGIDKTVMGILVSYQIKVKLTVSGLLGELTSSEVATEVPFRLMHPQPEDPDTAKESFQDENFVFEEFARQNLKDAGEYKEEKTDQEAAMDE
modifications: monobromobimane (mBBr) on the introduced cysteine 218
notes: arrestin-1, bovine; also called E218C-mBBr; source: Pichia pastoris, purified (nickel-agarose)
B2: enolase-1 (bovine, unlabeled) (enzyme, UniProt Q9XSJ4 1-434, looked up)
chain: MSILKVHAREIFDSRGNPTVEVDLFTAKGLFRAAVPSGASTGIYEALELRDNDKTRYMGKGVSKAVEHINKTIAPALVSKKLNVVEQEKIDKLMIEMDGTENKSKFGANAILGVSLAVCKAGAVEKGVPLYRHIADLAGNAEVILPVPAFNVINGGSHAGNKLAMQEFMILPVGAENFREAMRIGAEVYHNLKNVIKEKYGKDATNVGDEGGFAPNILENKEALELLKNAIGKAGYSDKVVIGMDVAASEFYRSGKYDLDFKSPDDPSRYITPDELANLYKSFIRDYPVVSIEDPFDQDDWEAWQKFTASAGIQVVGDDLTVTNPKRIAKAVSEKSCNCLLLKVNQIGSVTESLQACKLAQSNGWGVMVSHRSGETEDTFIADLVVGLCTGQIKTVAPCRSERLAKYNQILRIEEELGSKAKFAGRSFRNPLAK
notes: enolase-1 (alpha-enolase), bovine; also called Eno1; source: prepared as arrestin-1 (Pichia pastoris, nickel-agarose)

For assay [1], the target named is arrestin-1 D362K (bovine) (UniProt P08168). The assay is described as follows: co-IP; 5 μM arrestin-1 (or mutant) with 5 μM enolase-1–Alexa 546 in LAP200N, 2 h at 4 °C; captured by C10C10 anti-arrestin-1 mAb on Protein G magnetic beads for 16 h, 10 washes, eluted at pH 2.5; fluorescence of captured enolase-1 read.
The target of assay [2] is arrestin-1 E361K (bovine) (UniProt P08168). The assay is described as above.
The target in another assay is arrestin-1 R29E (bovine) (UniProt P08168). Described as above.
The target of assay [3] is B2. The assay is described as follows: fluorescence quench protection (KI quenching of mBBr); E218C-mBBr arrestin-1 with enolase-1 in the presence of 5 μM pRho* (sonicated disc membranes, light for 1 min). To be noted: both partners purified.
Assay [4] has as its target T1, arrestin-1 H10C (C63A/C143A), mBBr-labeled (bovine, UniProt P08168 2-404, C63A | C143A | H10C, monobromobimane (mBBr) on the introduced cysteine 10).
T1 construct: arrestin-1, bovine; source: Pichia pastoris, purified (nickel-agarose)
The assay is described as follows: fluorescence quench protection (KI quenching of mBBr); titration of the enolase-1 concentration against H10C-mBBr arrestin-1 to set the conditions. To be noted: both partners purified.

For assay [5], the target named is T2, arrestin-1 S210C (C63A/C143A), mBBr-labeled (bovine, UniProt P08168 2-404, C63A | C143A | S210C, monobromobimane (mBBr) on the introduced cysteine 210).
T2 construct: arrestin-1, bovine; source: Pichia pastoris, purified (nickel-agarose)
Description: fluorescence quench protection (KI quenching of mBBr); both in solution; 0.25 μM mBBr-labeled arrestin-1, 100 mM potassium iodide, with or without 5 μM enolase-1 (20-fold molar excess); emission at 470 nm; Pf = (F(A+E+K)−F(A+K))/(F(A)−F(A+K)). As to conditions: both partners purified.

Assay [6] deals with T3, arrestin-1 V281C (C63A/C143A), mBBr-labeled (bovine, UniProt P08168 2-404, C63A | C143A | V281C, monobromobimane (mBBr) on the introduced cysteine 281).
T3 construct: arrestin-1, bovine; source: Pichia pastoris, purified (nickel-agarose)
The description is as above. To be noted: both partners purified.

Assay [7] has as its target T4, arrestin-1 D362C (C63A/C143A), mBBr-labeled (bovine, UniProt P08168 2-404, C63A | C143A | D362C, monobromobimane (mBBr) on the introduced cysteine 362).
T4 construct: arrestin-1, bovine; source: Pichia pastoris, purified (nickel-agarose)
Described as above. To be noted: both partners purified.

The target of assay [8] is T5, arrestin-1 K28C (C63A/C143A), mBBr-labeled (bovine, UniProt P08168 2-404, C63A | C143A | K28C, monobromobimane (mBBr) on the introduced cysteine 28).
T5 construct: arrestin-1, bovine; source: Pichia pastoris, purified (nickel-agarose)
Described as above. To be noted: both partners purified.

Assay [9] addresses T6, arrestin-1 R189C (C63A/C143A), mBBr-labeled (bovine, UniProt P08168 2-404, C63A | C143A | R189C, monobromobimane (mBBr) on the introduced cysteine 189).
T6 construct: arrestin-1, bovine; source: Pichia pastoris, purified (nickel-agarose)
The assay is described as above. As to conditions: both partners purified.

The target of assay [10] is T7, arrestin-1 E50C (C63A/C143A), mBBr-labeled (bovine, UniProt P08168 2-404, C63A | C143A | E50C, monobromobimane (mBBr) on the introduced cysteine 50).
T7 construct: arrestin-1, bovine; source: Pichia pastoris, purified (nickel-agarose)
The assay is described as above. To be noted: both partners purified.

In assay [11] the target is T1, arrestin-1 H10C (C63A/C143A), …. The assay is described as above. As to conditions: both partners purified.
Assay [12] concerns the target T8, arrestin-1 K53C (C63A/C143A), mBBr-labeled (bovine, UniProt P08168 2-404, C63A | C143A | K53C, monobromobimane (mBBr) on the introduced cysteine 53).
T8 construct: arrestin-1, bovine; source: Pichia pastoris, purified (nickel-agarose)
The description is as above. As to conditions: both partners purified.

Assay [13] deals with T9, arrestin-1 R37C (C63A/C143A), mBBr-labeled (bovine, UniProt P08168 2-404, C63A | C143A | R37C, monobromobimane (mBBr) on the introduced cysteine 37).
T9 construct: arrestin-1, bovine; source: Pichia pastoris, purified (nickel-agarose)
Described as above. As to conditions: both partners purified.

Assay [14] has as its target B1. Described as above. To be noted: both partners purified.
Assay [15] addresses T10, arrestin-1 D183C (C63A/C143A), mBBr-labeled (bovine, UniProt P08168 2-404, C63A | C143A | D183C, monobromobimane (mBBr) on the introduced cysteine 183).
T10 construct: arrestin-1, bovine; source: Pichia pastoris, purified (nickel-agarose)
Described as above. To be noted: both partners purified.

Assay [16] addresses T11, arrestin-1 K267C (C63A/C143A), mBBr-labeled (bovine, UniProt P08168 2-404, C63A | C143A | K267C, monobromobimane (mBBr) on the introduced cysteine 267).
T11 construct: arrestin-1, bovine; source: Pichia pastoris, purified (nickel-agarose)
Described as above. To be noted: both partners purified.

The target in assay [17] is T12, arrestin-1 E302C (C63A/C143A), mBBr-labeled (bovine, UniProt P08168 2-404, C63A | C143A | E302C, monobromobimane (mBBr) on the introduced cysteine 302).
T12 construct: arrestin-1, bovine; source: Pichia pastoris, purified (nickel-agarose)
The assay is described as above. As to conditions: both partners purified.

Consider “enolase-1 labeled with Alexa Fluor 546 (from UniProt Q9XSJ4 1-434) (enzyme)”, for which the reduction of the pulldown against WT arrestin-1 (in assay [1]; in [2]; with arrestin-1 R29E (bovine)) was 25% in each case.
As for B1, in assay [3], the binding result was “binds”.
As to B2, the “quench protection at a 20-fold molar excess of enolase-1” value in assay [4] came out at 90%. The “Pf (quench protection factor)” value in assay [5] came to 0.618; in assay [6], 0.269; in [7], 1.2; in assay [8], 0.732; in assay [9], 0.467; in assay [10], 0.297. For the same molecule, the “Pf (quench protection factor)” value in assay [11] is 0.792; in assay [12], 0.314; in [13], 0.564; in assay [14], 1.08; in assay [15] it was 0.787; in assay [16], 0.484. Also, in assay [17], the “Pf (quench protection factor)” value was found to be 0.772.
